Results: patent US20120316071A1 (published 2012)

Experiments:
Recombinant Human DLL4 [1] = target: T1, Recombinant Human DLL4 (human, UniProt Q9NR61 27-524); assay: ECL (MSD) multispot binding assay, DLL4 spotted on plate, purified Fab in solution; signal over blank
T1 construct: Bought recombinant human DLL4 (R&D Systems Cat#1506-D4/CF); That entry includes the signal peptide (amino acids 1-25), the transmembrane region and the cytoplasmic domain; also called delta-like protein 4; Delta-like ligand 4

Recombinant Human DLL4 [2] = target: T1, Recombinant Human DLL4; assay: ELISA, DLL4 coated on plate, Fab in solution, absorbance at 450 nm; signal minus noise
[3] = target: T2, Recombinant Human DLL4 (delta-like protein 4) (human, UniProt Q9NR61 27-524); assay: ELISA, DLL4 coated on plate, Fab at 25 nM (first 25 nM row)
T2 construct: Bought recombinant human DLL4 (R&D Systems Cat#1506-D4/CF); also called rHuman DLL4; Delta-like 4

[4] = target: T2, Recombinant Human DLL4 (delta-like …); assay: ELISA, DLL4 coated on plate, Fab at 100 nM
[5] = target: T2, Recombinant Human DLL4 (delta-like …); assay: ELISA, DLL4 coated on plate, Fab at 0 nM (no-Fab background)
[6] = target: T2, Recombinant Human DLL4 (delta-like …); assay: ELISA, DLL4 coated on plate, Fab at 50 nM
[7] = target: T2, Recombinant Human DLL4 (delta-like …); assay: ELISA, DLL4 coated on plate, Fab at 0 nM (no-Fab background, first 0 row)
[8] = target: T2, Recombinant Human DLL4 (delta-like …); assay: ELISA, DLL4 coated on plate, Fab at 100 nM; remark: listed apart in the source
[9] = target: T2, Recombinant Human DLL4 (delta-like …); assay: ELISA, DLL4 coated on plate, Fab at 75 nM
[10] = target: T2, Recombinant Human DLL4 (delta-like …); assay: ELISA, DLL4 coated on plate, Fab at 200 nM
[11] = target: T2, Recombinant Human DLL4 (delta-like …); assay: ELISA, DLL4 coated on plate, Fab at 50 nM; remark: listed apart in the source
[12] = target: T2, Recombinant Human DLL4 (delta-like …); assay: ELISA, DLL4 coated on plate, Fab at 25 nM (second 25 nM row)
[13] = target: T2, Recombinant Human DLL4 (delta-like …); assay: ELISA, DLL4 coated on plate, Fab at 400 nM
[14] = target: T2, Recombinant Human DLL4 (delta-like …); assay: ELISA, DLL4 coated on plate, Fab at 0 nM (no-Fab background, second 0 row)
[15] = target: T3, Recombinant Human DLL4 (delta-like protein 4) (human, UniProt Q9NR61 27-524); assay: ECL (Meso Scale Discovery) binding assay on immobilised DLL4, Fab 10 nM
T3 construct: also called rHuman DLL4

B1: Fab VH5-51_IGHD5-18*01>3_IGHJ4*01 G100K/G104T G35A & V3-4_IGLJ1*01 (Fab, V domains shown)
VH: EVQLVQSGAEVKKPGESLKISCKGSGYSFTSYWIAWVRQMPGKGLEWMGIIYPGDSDTRYSPSFQGQVTISADKSISTAYLQWSSLKASDTAMYYCARRKYSYTYDYFDYWGQGTLVTVSS
VL: QTVVTQEPSFSVSPGGTVTLTCGLSSGSVSTSYYPSWYQQTPGQAPRTLIYSTNTRSSGVPDRFSGSILGNKAALTITGAQADDESDYYCVLYMGSGISYVFGTGTKVTVL
notes: Fab expressed in E. coli with CH1 (plasmid A, His6 and Flag tags) and lambda CL (plasmid E); also called KT G35A
With B1 the “ECL Signal/Blank” value (Recombinant Human DLL4 [1]) was 180 and the “ELISA (Signal-Noise)” value (Recombinant Human DLL4 [2]) was 0.02.

B2: Fab VH5-51_IGHD5-18*01>3_IGHJ4*01 G100K/G104T S28A & V3-4_IGLJ1*01 (Fab, V domains shown)
VH: EVQLVQSGAEVKKPGESLKISCKGSGYAFTSYWIGWVRQMPGKGLEWMGIIYPGDSDTRYSPSFQGQVTISADKSISTAYLQWSSLKASDTAMYYCARRKYSYTYDYFDYWGQGTLVTVSS
VL: QTVVTQEPSFSVSPGGTVTLTCGLSSGSVSTSYYPSWYQQTPGQAPRTLIYSTNTRSSGVPDRFSGSILGNKAALTITGAQADDESDYYCVLYMGSGISYVFGTGTKVTVL
notes: Fab expressed in E. coli with CH1 (plasmid A, His6 and Flag tags) and lambda CL (plasmid E); also called KT S28A
With B2 the “ECL Signal/Blank” value (Recombinant Human DLL4 [1]) was 112 and the “ELISA (Signal-Noise)” value (Recombinant Human DLL4 [2]) was 0.01.

B3: Fab VH1-46_IGHD6-6*01_IGHJ1*01 S102A/S103P/S104F/H111F & L6_IGKJ1*01 (Fab, V domains shown)
VH: QVQLVQSGAEVKKPGASVKVSCKASGYTFTSYYMHWVRQAPGQGLEWMGIINPSGGSTSYAQKFQGRVTMTRDTSTSTVYMELSSLRSEDTAVYYCAREEYAPFSAEYFQFWGQGTLVTVSS
VL: not shown
notes: Tested as a Fab made in E. coli; also called H:APFF & L:wt; APFF
B3 showed an ELISA signal [3] of 0.02, an ELISA signal [4] of 0.07 and an ELISA signal [5] of 0.006. For the same binder, the ELISA signal [6] was 0.06, the ELISA signal [7] was 0 and the ELISA signal [8] was 0.072. For the same binder, the ELISA signal [9] was 0.072, the ELISA signal [10] was 0.1 and the ELISA signal [11] was 0.06. For the same binder, the ELISA signal [12] was 0.03, the ELISA signal [13] was 0.13 and the ELISA signal [14] was 0.

B4: Fab VH1-46_IGHD6-6*01_IGHJ1*01 S102A/S103P/S104F/H111F (APFF) & L6_IGKJ1*01 S76G (Fab, V domains shown)
VH: QVQLVQSGAEVKKPGASVKVSCKASGYTFTSYYMHWVRQAPGQGLEWMGIINPSGGSTSYAQKFQGRVTMTRDTSTSTVYMELSSLRSEDTAVYYCAREEYAPFSAEYFQFWGQGTLVTVSS
VL: EIVLTQSPATLSLSPGERATLSCRASQSVSSYLAWYQQKPGQAPRLLIYDASNRATGIPARFSGSGSGTDFTLTIGSLEPEDFAVYYCQQRSNWPPWTFGQGTKVEIKR
notes: Fab made in E. coli: VH in plasmid A (CH1, His6 and Flag tags), VL in plasmid C (kappa CL); also called H:APFF & L6_IGKJ1*01 S76G
B4 was tested, and the “Signal [10 nM Fab]” value [15] was 13400.

B5: Fab VH1-46_IGHD6-6*01_IGHJ1*01 S102A/S103P/S104F/H111F (APFF) & L6_IGKJ1*01 S76T (Fab, V domains shown)
VH: QVQLVQSGAEVKKPGASVKVSCKASGYTFTSYYMHWVRQAPGQGLEWMGIINPSGGSTSYAQKFQGRVTMTRDTSTSTVYMELSSLRSEDTAVYYCAREEYAPFSAEYFQFWGQGTLVTVSS
VL: EIVLTQSPATLSLSPGERATLSCRASQSVSSYLAWYQQKPGQAPRLLIYDASNRATGIPARFSGSGSGTDFTLTITSLEPEDFAVYYCQQRSNWPPWTFGQGTKVEIKR
notes: Fab made in E. coli: VH in plasmid A (CH1, His6 and Flag tags), VL in plasmid C (kappa CL); also called H:APFF & L6_IGKJ1*01 S76T
With B5 the “Signal [10 nM Fab]” value [15] was 15700.

B6: Fab VH1-46_IGHD6-6*01_IGHJ1*01 S102A/S103P/S104F/H111F (APFF) & L6_IGKJ1*01 S76L (Fab, V domains shown)
VH: QVQLVQSGAEVKKPGASVKVSCKASGYTFTSYYMHWVRQAPGQGLEWMGIINPSGGSTSYAQKFQGRVTMTRDTSTSTVYMELSSLRSEDTAVYYCAREEYAPFSAEYFQFWGQGTLVTVSS
VL: EIVLTQSPATLSLSPGERATLSCRASQSVSSYLAWYQQKPGQAPRLLIYDASNRATGIPARFSGSGSGTDFTLTILSLEPEDFAVYYCQQRSNWPPWTFGQGTKVEIKR
notes: Fab made in E. coli: VH in plasmid A (CH1, His6 and Flag tags), VL in plasmid C (kappa CL); also called H:APFF & L6_IGKJ1*01 S76L
In the case of B6, the “Signal [10 nM Fab]” value [15] is reported as 13700.

B7: Fab VH1-46_IGHD6-6*01_IGHJ1*01 S102A/S103P/S104F/H111F (APFF) & L6_IGKJ1*01 (Fab, V domains shown)
VH: QVQLVQSGAEVKKPGASVKVSCKASGYTFTSYYMHWVRQAPGQGLEWMGIINPSGGSTSYAQKFQGRVTMTRDTSTSTVYMELSSLRSEDTAVYYCAREEYAPFSAEYFQFWGQGTLVTVSS
VL: not shown
notes: Fab made in E. coli: VH in plasmid A (CH1, His6 and Flag tags), VL in plasmid C (kappa CL); also called H:APFF & L:wt; APFF mutant
With B7 the “Signal [10 nM Fab]” value [15] was 13500.

B8: Fab VH1-46_IGHD6-6*01_IGHJ1*01 S102A/S103P/S104F/H111F (APFF) & L6_IGKJ1*01 S76Y (Fab, V domains shown)
VH: QVQLVQSGAEVKKPGASVKVSCKASGYTFTSYYMHWVRQAPGQGLEWMGIINPSGGSTSYAQKFQGRVTMTRDTSTSTVYMELSSLRSEDTAVYYCAREEYAPFSAEYFQFWGQGTLVTVSS
VL: EIVLTQSPATLSLSPGERATLSCRASQSVSSYLAWYQQKPGQAPRLLIYDASNRATGIPARFSGSGSGTDFTLTIYSLEPEDFAVYYCQQRSNWPPWTFGQGTKVEIKR
notes: Fab made in E. coli: VH in plasmid A (CH1, His6 and Flag tags), VL in plasmid C (kappa CL); also called H:APFF & L6_IGKJ1*01 S76Y
For B8, the “Signal [10 nM Fab]” value [15] was 14800.
